Test results taken from PMC7277169, “C-Methylation of S-adenosyl-L-Methionine Occurs Prior to Cyclopropanation in the Biosynthesis of 1-Amino-2-Methylcyclopropanecarboxylic Acid (Norcoronamic Acid) in a Bacterium” (Biomolecules, 2020).

Tested on: T1, C[S+](CC[C@H](N)C(=O)O)C[C@H]1O[C@@H](n2cnc3c(N)ncnc32)[C@H](O)[C@@H]1O
T1 construct: C-terminal 8xHis tag kept; expressed in Streptomyces lividans TK23; Ni-NTA purified; homodimer
Test: HPLC-HR-ESI-MS of APDS-derivatized ACC; Michaelis-Menten fit
Format: biochemical, Streptomyces violaceusniger
Conditions: 50 mM sodium phosphate pH 8.0, 30 °C, 60 min, PLP enzyme, unit typeset as 'mm' in text

With “rOrf30 (Orf30) (Streptomyces violaceusniger)” the Km was 1090 ± 330 µM and the kcat was 0.0049 ± 0.00068 s⁻¹.
